Laboratory results published in patent US20250376519A1 (JIANGSU HENGRUI PHARMACEUTICALS, published 2025).

T1: human DLL3 on cells (human, UniProt Q9NYJ7 27-618)
T1 construct: Endogenous on H1184 and SHP77; Cell line is named under assay; also called H1184; DLL3/H82
T1 sequence: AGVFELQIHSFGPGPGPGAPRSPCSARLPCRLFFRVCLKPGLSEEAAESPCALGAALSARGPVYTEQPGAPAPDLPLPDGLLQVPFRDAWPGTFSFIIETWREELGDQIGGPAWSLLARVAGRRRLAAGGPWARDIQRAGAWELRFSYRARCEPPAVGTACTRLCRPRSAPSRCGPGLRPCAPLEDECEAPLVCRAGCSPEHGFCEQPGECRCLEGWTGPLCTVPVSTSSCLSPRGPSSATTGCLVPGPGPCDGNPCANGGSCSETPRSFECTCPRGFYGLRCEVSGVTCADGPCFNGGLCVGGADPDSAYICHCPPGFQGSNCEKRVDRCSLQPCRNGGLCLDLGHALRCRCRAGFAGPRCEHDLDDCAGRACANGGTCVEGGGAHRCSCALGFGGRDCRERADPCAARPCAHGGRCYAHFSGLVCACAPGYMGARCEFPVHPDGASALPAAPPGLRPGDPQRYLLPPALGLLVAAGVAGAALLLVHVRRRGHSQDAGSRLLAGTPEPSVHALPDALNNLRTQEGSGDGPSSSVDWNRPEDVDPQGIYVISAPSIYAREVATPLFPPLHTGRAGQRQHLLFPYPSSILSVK

T2: cynomolgus monkey DLL3 (KACTUS, DLL-RM103) (cynomolgus monkey, UniProt Q9NYJ7 27-492 (human entry), limits assumed)
T2 construct: Bought
T2 chain: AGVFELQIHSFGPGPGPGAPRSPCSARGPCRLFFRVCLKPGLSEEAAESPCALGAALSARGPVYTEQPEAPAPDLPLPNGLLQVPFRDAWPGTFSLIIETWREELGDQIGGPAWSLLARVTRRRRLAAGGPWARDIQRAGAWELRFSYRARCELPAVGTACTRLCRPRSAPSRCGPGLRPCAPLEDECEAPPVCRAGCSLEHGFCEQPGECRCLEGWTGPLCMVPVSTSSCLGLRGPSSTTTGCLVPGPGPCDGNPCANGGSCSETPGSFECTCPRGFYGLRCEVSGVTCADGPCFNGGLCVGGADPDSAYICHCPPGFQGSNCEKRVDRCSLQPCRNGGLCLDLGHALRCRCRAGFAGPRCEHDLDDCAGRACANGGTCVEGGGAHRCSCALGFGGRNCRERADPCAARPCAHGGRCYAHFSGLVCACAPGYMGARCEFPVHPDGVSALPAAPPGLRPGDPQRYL

T3: mouse DLL3 (KACTUS, DLL-MM103) (mouse, UniProt O88516 33-490, limits assumed)
T3 construct: Bought
T3 sequence: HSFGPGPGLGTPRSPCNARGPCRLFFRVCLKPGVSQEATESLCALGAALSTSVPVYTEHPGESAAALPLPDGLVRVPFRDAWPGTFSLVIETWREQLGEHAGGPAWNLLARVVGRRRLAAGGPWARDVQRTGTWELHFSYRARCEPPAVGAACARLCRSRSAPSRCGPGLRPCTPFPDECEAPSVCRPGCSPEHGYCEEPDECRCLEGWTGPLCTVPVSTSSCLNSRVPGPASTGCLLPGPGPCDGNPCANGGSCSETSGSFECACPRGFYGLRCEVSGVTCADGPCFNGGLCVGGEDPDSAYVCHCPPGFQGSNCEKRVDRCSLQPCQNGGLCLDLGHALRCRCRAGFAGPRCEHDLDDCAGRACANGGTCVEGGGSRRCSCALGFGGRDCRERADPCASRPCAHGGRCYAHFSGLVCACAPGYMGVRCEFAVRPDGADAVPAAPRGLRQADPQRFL

T4: human DLL3 (ACRO, DLL3-H52H4) (human, UniProt Q9NYJ7 27-492)
T4 construct: Bought
T4 sequence: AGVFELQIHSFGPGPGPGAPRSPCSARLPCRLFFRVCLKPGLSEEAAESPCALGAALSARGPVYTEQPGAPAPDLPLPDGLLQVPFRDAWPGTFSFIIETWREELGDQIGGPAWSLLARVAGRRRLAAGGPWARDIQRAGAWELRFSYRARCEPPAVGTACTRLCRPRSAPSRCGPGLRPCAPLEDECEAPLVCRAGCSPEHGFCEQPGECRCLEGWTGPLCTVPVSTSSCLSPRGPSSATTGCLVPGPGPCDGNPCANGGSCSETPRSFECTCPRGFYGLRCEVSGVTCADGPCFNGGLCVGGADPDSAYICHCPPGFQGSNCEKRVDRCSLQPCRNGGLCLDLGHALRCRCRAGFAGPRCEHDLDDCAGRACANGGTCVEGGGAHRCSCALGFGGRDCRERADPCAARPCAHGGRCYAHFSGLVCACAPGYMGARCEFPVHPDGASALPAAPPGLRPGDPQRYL


Experiments:
human DLL3 on cells = target: T1, human DLL3 on cells; test: flow cytometry, hDLL3/CHO-s cells
Procedure: The plates were centrifuged at 300 g for 5 min, and the supernatant was removed. Different concentrations of test antibodies were added at 100 μL/well. The plates were incubated in the dark in a refrigerator at 4° C. for 1 h. After 3 centrifugal washes at 300 g, working concentrations of APC anti-human IgG Fc (BioLegend, 410712) or PE F(ab′)2-goat anti-human IgG (invitrogen, H10104) were added. The plates were incubated in the dark in a refrigerator at 4° C. for 40 min. After 3 centrifugal washes at 300 g, the geometric mean fluorescence intensity was measured on an Invitrogen flow cytometer, and the EC50 values for the binding of the antibodies to DLL3-expressing cells were calculated.

[1] = target: T2, cynomolgus monkey DLL3 (KACTUS, …); test: SPR Biacore 8K, Ab captured on Protein A
Method in brief: (§1)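 Antibodies captured on a Protein A chip for 18 s; DLL3 or CD3D&3E antigen flowed 180 s, then 600 s dissociation, with real-time detection. Regeneration used 10 mM glycine-HCl pH 1.5 between cycles. Kinetics were obtained by 1:1 model fitting.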

[2] = target: T3, mouse DLL3 (KACTUS, DLL-MM103); test: SPR Biacore 8K, Ab captured on Protein A
Method in brief: as §1

[3] = target: T5, monkey CD3D&3E (ACRO, CDD-C52W4) (cynomolgus monkey, UniProt Q95LI8 22-105; Q95LI5 22-117); test: SPR Biacore 8K, Ab captured on Protein A
T5 construct: bought CD3 delta/epsilon protein; also called cynomolgus monkey CD3
T5 sequence (Q95LI8 22-105, chain 1 of 2): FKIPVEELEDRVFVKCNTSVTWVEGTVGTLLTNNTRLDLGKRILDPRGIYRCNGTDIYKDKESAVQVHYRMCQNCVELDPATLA
T5 sequence (Q95LI5 22-117, chain 2 of 2): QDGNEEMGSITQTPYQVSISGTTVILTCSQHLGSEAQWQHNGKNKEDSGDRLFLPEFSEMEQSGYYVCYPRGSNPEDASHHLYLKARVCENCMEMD
Method in brief: as §1

[4] = target: T4, human DLL3 (ACRO, DLL3-H52H4); test: SPR Biacore 8K, Ab captured on Protein A
Method in brief: as §1

EC50 (human DLL3 on cells) | Kd [1] | koff [1] | kon [1] | binding result [2] | Kd [3] | koff [3] | kon [3] | Kd [4] | koff [4] | kon [4] | Binder
5.07 nM | 0.523 nM | 6.43e-05 s⁻¹ | 123000 M⁻¹ s⁻¹ | no binding | 39.6 nM | 0.007 s⁻¹ | 177000 M⁻¹ s⁻¹ | 0.113 nM | 2.82e-05 s⁻¹ | 249000 M⁻¹ s⁻¹ | hu110-S107E-hot Ig (bispecific antibody, Format 1 (Hot-Ig, Titin/Obscurin-replaced DLL3 Fab), DLL3 x CD3) light 1: NIVMTQSPKSLAVSLGERATINCKASENVGIFVSWYQQKPGQSPKLLIYGASNRYTGVPDRFSGSGSATDFTLTISSLQAEDVADYYCGQSHSYPLTFGQGTKLEIKGGGGSSGAPRFLTRPKASVVSVGKDATLSCQIVGNPFPQVSWEKDKQPVTAGVRFRLAQDGDLYRLKILDLQLSDSGQYVCRARNAHGEAFACLGLQVDAEA heavy 1: EVQLVQSGAEVKKPGASVKVSCKTSGYTFTDYYMNWVRQAPGQSLEWMGIINPYQGGTSYTQKFKGRVTITVDKSASTAYMELSSLRSEDTAVYYCARHFYDSSYLTYSTMDYWGQGTTVTVSSGGGGSGIPPKIECLPIDISIDEGKVLTVASAFTGEPTPEVTWSTGGRKIHSQEQGRFHIENTDDSTTLTIKDVQKQDGGLYTLTLRNEFGSDSATVNIHIRSIDKTHTCPPCPAPEAAGGPSVFLFPPKPKDTLMISRTPEVTCVVVDVSHEDPEVKFNWYVDGVEVHNAKTKPREEQYNSTYRVVSVLTVLHQDWLNGKEYKCKVSNKALPAPIEKTISKAKGQPREPQVCTLPPSREEMTKNQVSLSCAVKGFYPSDIAVEWESNGQPENNYKTTPPVLDSDGSFFLVSKLTVDKSRWQQGNVFSCSVMHEALHNHYTQKSLSLSPGK heavy 2: not shown light 2: not shown
4.91 nM | 0.616 nM |  |  | no binding | 1.5 nM |  |  | 0.119 nM |  |  | hu110-I2C-hot Ig (bispecific antibody, Format 1 (Hot-Ig, Titin/Obscurin-replaced DLL3 Fab), DLL3 x CD3) light 1: NIVMTQSPKSLAVSLGERATINCKASENVGIFVSWYQQKPGQSPKLLIYGASNRYTGVPDRFSGSGSATDFTLTISSLQAEDVADYYCGQSHSYPLTFGQGTKLEIKGGGGSSGAPRFLTRPKASVVSVGKDATLSCQIVGNPFPQVSWEKDKQPVTAGVRFRLAQDGDLYRLKILDLQLSDSGQYVCRARNAHGEAFACLGLQVDAEA heavy 1: EVQLVQSGAEVKKPGASVKVSCKTSGYTFTDYYMNWVRQAPGQSLEWMGIINPYQGGTSYTQKFKGRVTITVDKSASTAYMELSSLRSEDTAVYYCARHFYDSSYLTYSTMDYWGQGTTVTVSSGGGGSGIPPKIECLPIDISIDEGKVLTVASAFTGEPTPEVTWSTGGRKIHSQEQGRFHIENTDDSTTLTIKDVQKQDGGLYTLTLRNEFGSDSATVNIHIRSIDKTHTCPPCPAPEAAGGPSVFLFPPKPKDTLMISRTPEVTCVVVDVSHEDPEVKFNWYVDGVEVHNAKTKPREEQYNSTYRVVSVLTVLHQDWLNGKEYKCKVSNKALPAPIEKTISKAKGQPREPQVCTLPPSREEMTKNQVSLSCAVKGFYPSDIAVEWESNGQPENNYKTTPPVLDSDGSFFLVSKLTVDKSRWQQGNVFSCSVMHEALHNHYTQKSLSLSPGK heavy 2: not shown light 2: not shown
4.52 nM | 0.762 nM |  |  | no binding | 2.32 nM |  |  | 0.125 nM |  |  | hu110-I2C-Y body (bispecific antibody, Format 2 (Y body: DLL3 Fab-Fc hole + CD3 scFv-Fc knob)) light: NIVMTQSPKSLAVSLGERATINCKASENVGIFVSWYQQKPGQSPKLLIYGASNRYTGVPDRFSGSGSATDFTLTISSLQAEDVADYYCGQSHSYPLTFGQGTKLEIKRTVAAPSVFIFPPSDEQLKSGTASVVCLLNNFYPREAKVQWKVDNALQSGNSQESVTEQDSKDSTYSLSSTLTLSKADYEKHKVYACEVTHQGLSSPVTKSFNRGEC heavy: EVQLVQSGAEVKKPGASVKVSCKTSGYTFTDYYMNWVRQAPGQSLEWMGIINPYQGGTSYTQKFKGRVTITVDKSASTAYMELSSLRSEDTAVYYCARHFYDSSYLTYSTMDYWGQGTTVTVSSASTKGPSVFPLAPSSKSTSGGTAALGCLVKDYFPEPVTVSWNSGALTSGVHTFPAVLQSSGLYSLSSVVTVPSSSLGTQTYICNVNHKPSNTKVDKKVEPKSCDKTHTCPPCPAPEAAGGPSVFLFPPKPKDTLMISRTPEVTCVVVDVSHEDPEVKFNWYVDGVEVHNAKTKPREEQYNSTYRVVSVLTVLHQDWLNGKEYKCKVSNKALPAPIEKTISKAKGQPREPQVCTLPPSREEMTKNQVSLSCAVKGFYPSDIAVEWESNGQPENNYKTTPPVLDSDGSFFLVSKLTVDKSRWQQGNVFSCSVMHEALHNHYTQKSLSLSPGK not shown
